Test: yeast display, Sf9 membrane polyspecificity reagent, FACS + sequencing; frameworks hold sequencing errors
Procedure, shortened: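 Synthetic nanobody libraries on Saccharomyces cerevisiae BJ5465 were galactose-induced for 36–48 hours, stained 1 hour at 4 °C with 10% biotinylated, detergent-solubilized Sf9 membrane reagent and enriched on streptavidin microbeads. FACS then separated cells into low and high (top ~1%) gates by anti-HA (expression) and streptavidin (reagent binding) fluorescence. Genes were colony-PCR amplified, MiSeq 2 × 250 sequenced and CDR-length filtered. A clone's polyreactivity label is that of its gate of origin.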

Row | Sequence | polyreactivity (PSR sort gate)
1 | QVQLVESGGGLVQAGGSLRLSCAASGRTFRIYAMGWYRPATGKEREMVATISGRGGNTYYADSVKGRFTISRDNAKNTVYLQMNSLKPDDTAVYYCNTVYLPNFQWFDYWGQGTQVTVSS | high polyreactivity
2 | QVQLVESAGGLVQAGGRLRLSCAASGFIFYRYAMGWYRQAPGKERELVAAISRNGGSTYYADSVKGRFTISRDNAKNTVYLQRNILKPEDTAVYYCNVDYRLVRIRVDYEYWGQGTQVTVSS | high polyreactivity
3 | QVQLVESGGGLVHAGGSLRLSCAASRSTFALNAMGWYRPAPGKERELVAAISRRGGSTYYADSVKGRFTISRDNAKNSVYLQMNSLKPEDTAVYYCAARYKRFTRFDYWGQGTQVTVSS | high polyreactivity
4 | QVQLVESGGGLVQSGGSHPLSCAASGRTFYSYAMRGYRQAPGKDSEFVAAIRRCGSSTYYADSVKGRFTISRDNAKNTVYLQMNSLKPEDTAVYYCNAAPYIYPIRGNYWGQGTQETVSS | high polyreactivity
5 | QVQLVESGGGLVQAGGSLRLSCAASGRTFKAYAMGWYRQAAGKEREFVPAITKRGGSTYYADSVKGRFTISRDNAKNTVYLQMNSLKPEDTAVYYCAVGLGRYTHTSVPIPSYDYWGQGTQVTVSS | high polyreactivity
6 | QVQLVESGGGLVQAGGSLRLSCAASGRTFYDYAMGWYRQAPGKERELVAGIRWSGGSTYYADSVKGRFTISRDNAKNTVYLQMISLKPEDTAVYYCAADWFAGVAADVEYDYWGQGTQVTVSS | low polyreactivity
7 | QVQLVESGGGLVQAGGSLRLSCAASGFIFLLYAMGWYRQAPGKERELVAAIDTDTSTNYADSVKGRFTISRDNAKNTVYLQMNSLKPEDTAVYYCAREEPGVSLGVDYDYWGQGTQVTVSS | low polyreactivity
8 | QVQLVESGGGLVQAGGSLRLSCAASGFTFYTNAMGWYRPAPGKEREFVAAISFSGGTYYADSVKGRFTISRDNAKNTVYLQMNSLKPEDTAVYYCNARYPRYYRGVIQYDYWGQGTQVTVSS | low polyreactivity
9 | QLQLVESGGGLVQAGGSIRLSCAASGSIFDWYAMGWYRQEPGKERELVARITSGGRTNYADSVKGRFTISRDNAKNTVYLQMNSLKPEDTAVYYCAAGRVSWSPYYYWGQGTQVTVSS | high polyreactivity
10 | QVQLVESGGGLVQAGGSLRLSCAASGITPDYAMGWYRQAPGKERELVAAITWSGGRTYYADSVKGRFTISRDNAKNTVYLQMNSLKPEDTAVYYCAAEHYLGYDYWGQGTQVTVSS | low polyreactivity
11 | QVQLVESGGGLVQAGGSLRLSCAASGRTLTGYAMGWYRQAPGKERELVAAITWRDSTYYADSVKGRFTISRDNAKNSVYLQMNSLKPEDTAVYYCNADNATYFVYEFNYWGQGTQVTVSS | low polyreactivity
12 | QVQLVESGGGLVQAGGSLRLSCAASGITFTENVMGWYRQAPGKERELVAGISRSGGITYYADSVKGRFTISRDNAKNTVYLQMNSLKPEDTAVYYCAAEEAYRSRRGGFDYWGQGTQVTVSS | high polyreactivity
13 | QFQLVETVGGLVQAGGSLRLSCAASGSIFPGYAMGWYRQAPGKERELVATITWSGGSTYYADSVKGRFTISRDNAKNTVYLQMYSLIPEDTAVYYFNADSNWYYQWNYYGLYDYWGKGTQVTVSS | low polyreactivity
14 | QVQLVESGGGLVQAGGSLRLSCAASGSTFTTYAMGWYRQAPGKEREFVASIRWRGGNTYYADSVKGRFTISRDNAKNTVYLQMNSLKPEDTAVYYCARRVDYISSKYGYWGQGTQVTVSS | high polyreactivity
15 | QVQLVESGGGLVKAGGSLRLSFAAYGSNFPRYALGWYRQATGKERELVASITSDGGSTYYADSVKGRFTISRDNAKNTVYLQMNSLKPEDTAVYYCNKVPYRGYRRYGYWGQGTQVTVSS | high polyreactivity
16 | QVQLVESGGGLVQAGGSLRVSCAASGRIFDENAMGWYRPAPGKERELVAAIDWSGGSTYYADSVKGRFTISRDYAKNTVYLQMNRQKPEDTAVYYCNADYYYYVSLGWWSFIVSEYDYWGHGTQVTVSS | low polyreactivity
17 | QVQLVESGGGLVQAGGSLRLSCAASGSTFGWNAMGWYRQAPGKERELVAAITRGGRTTYADSVKGRFTISRDNAKNTVYLQMNSLKPEDTAVYYCAALHGRYPNRYDYWGQGTQVTVSS | low polyreactivity
18 | LVQLVESRGGLVQAGGSLRLSCAASGRTFAWYAMGWYRPAPGKERELVAAISNVGSTYYADTVKGRFTISRDNAKNTVYLQMNSLKPEDTAVYYCNPDAVSTDGREYWGQGTQVTVSS | low polyreactivity
19 | QVQLVESGGGLVQAGGSLRLSCAASGFTFPYAMGWYTQAPGKERELVAGISWSGGSTYYADSVKGRFTISRDNAKNTVYLQMNSLKPEDTAVYYCNKYVQSGGTYDYWGQGTQVTVSS | low polyreactivity
20 | QVQLVESGGGLVQAGGSLRLSCAATGIIYGYVMGWYRQAPGKERELVAVITRSGGSTYYADSVKGRFTISRDNAMNSVYLQMNSLKPEDTAVYYCAAQGIDILYDYWGQGTQVTVSS | low polyreactivity
21 | QVQLVESGGGLVQAGGSLLLSCAASGSIFSIYAMGWYRQAPGKERELVAAISSSGRTYYADSVKGRFTISRDNAKNTVYLQMNSLKPEDTAVYSCNRVREGKHYYYWGQGTQVTVSS | high polyreactivity
22 | QVQLVESGGGLVQAGGSLRLSCAASGIIFYDYAMGWYRQAPGKERELVAAITSNGDNTYYADSVKGRFTISRDNAKNTVYLQMNSLKPEDTAVYYCAVDGSFAADFDNYLEEYGYWGQGTLVTVSS | low polyreactivity

Row | Sequence | polyreactivity (PSR sort gate)
23 | QVQLVESGGGLVQAGGSLRLSCAASGSIFVYNAMGWYRQAPVKERELVAVITLRSGSTNYADSVKGRFTISRDNEKNTVYLQMNSLKPEDTAVYYCAADDTYHDYQRDTDDDYWGQGTQVTVSS | low polyreactivity
24 | QVQLVESGGGLDQAGGSLRLSCAASGRTFGRYAMGWYRQAPGKERELVAAITRSGSSTYYADSVKGRFTISRDNAKNTVYLQMNSLKPEDTAVYYCAAGPRPRPSDYWGQGTQVTVSS | high polyreactivity
25 | QVQLVESGGGLVQAGGSLRLSCAASGFIFGYYTMGWYRQAPGKERELVASISSRGGSTFYADSVKGRFTISRDNAKNTVYLQMNSLKPEDTAVYYCAVRRGVYYYPYYYWGQGTQVTVSS | high polyreactivity
26 | QVQLVESGGGLVQAGGSLRLSCAASGSTFSSYAMGWYRQAPGKERELVAAISTSGGRTYYADSVKGRFTISRDNAKNTVYLQMNSLKPEDTAVYYCAKKGIGYVRYYYWGQGTQVTVSS | high polyreactivity
27 | QVQLVESGGGLVQAGGSLRLSCAASGRILRSYAMGWYRQAPGKERELVAAISWRGGSTYYADSVKGRFTISRDNAKNTVYLQMNSLKPEDTAVYYCAKRSYYPARYDYWGQGTQVTVSS | high polyreactivity
28 | QVQLVESGGALVQAGGSLRLSCAASGSTFFKYGMGWYRQAPGKERELDATISSRGGNTSYADSVKGRFTISRDNAKNTVYLQMNSLKPEDTAVYYCNAGGDEPVYGSGYDYWGQGTQVTVSS | low polyreactivity
29 | QVQLVESGGGLVQAGGSLRLSCAASGYTFPSNAMGWYRQAPGKERELVAAISSGGRTNYADSVKGRFTISRDNAKNTVYLQMNSLTPEDTAVYYCNADGGPGYPRAYDYWGQGTQVTGSS | low polyreactivity
30 | QVQLGESGGGLVQAGVSLRLSCAASGSLFYHNAMGWYRHAPGKERELVAAISGRGGSTYYADSVKGRFTISRDNAKNTVYLQMNSLKPEDTAVYYCAADARYQNGGLYYWGQGTQVTVSS | high polyreactivity
31 | QVQLVESGGGFVQAGGSLRLSCAASGYIFGIYAMGWYRQAPGKERELVAAISTSGGSTYYADSVKGRFTISRDNAKNTVYLQMNSLKPEDTAVYYCARPTTYGYYYWGQGTQVTVSS | high polyreactivity
32 | QVQLVESGGGLVQAGGSLRLSCAASGSTFSRNAMGWYRQAPGKERELVASITRGGSTYADSVKGRFTISRDNAKNTVYLQMNSLKPEDTAVYYCAKSVTGWRGLWYTPRNYYWGQGTQVTVSS | high polyreactivity
33 | QVQLVESGGGLVQAGGSLRLICAASGRIIGKNAMGWYRQARGKERELVAAIRYNGGRTYYADSVKGRFTISRDNAKNTVYLQMNSLKPEDTAVYYCAARWRSWRYKYDYWGQGTQVTVSS | high polyreactivity
34 | QVQLVESWGGLVQAGGSLRLSCAASGRTNGYAMGWYRQAPGKERELVARITWRGGSTSYADSVKGRFTISRDNAKNTVYLQMNSLKREDTAVYYCAAGFYFPVYTYVRKRYYYWGQGTQVTVSS | high polyreactivity
35 | QVQLVESGGGLVQAGGSLRLSCAASGVTFSLNTMGWYRQSPGKERELVAAINSGDSTYADSVKGRFTISRDNAKNTVYVQMNSLKPEDTAVYYCTADPDWWYPYNYWGQGTQVTVSS | low polyreactivity
36 | QVQLVESVGGLVQAGGSLRLSCAASGFIFSGNTMGWYRQAPGKERELVAAITSGGGRTYYADSVKGRFTISRDNAKNTVYLQMNSLKPEDTAVYYCNTAFVYEYDYWGQGTQVTVSS | high polyreactivity
37 | QVQLVDSGGGLVQAGVSLRISCAASGSTFYANAMGWYRQAPGKERELVATITSSGTSTYYGDSVKGRFTISRDNAKNTFYLQMNSLKPEDIAVYYCAAEYSLLYWEFDYWGQGTQVTVSS | low polyreactivity
38 | QVQLVESGGGLVQAGGSLRLSCAASGSIFTLYSMGWYRQAPGKERELVATINWSGGSTSYADSVKGRFTISRDNAKYTVYLQMNSLKADDTAVYYCAADYYFWHGTGYDYWGQGTQVNVSS | low polyreactivity
39 | QGQLVESGGGLVQAGCSLRLSCAASGITYTPYALGWYRQAPGKAREFVASISVSGGSTYYADSVKGRFRFSRVNAKNTVYLEMNCLKPEDTAVYYCNAVSYRKHYFNSLYGYWGLGTQVTVSS | high polyreactivity
40 | QVQLVESGGGLVQAGCSLRLSCAASGRIFLVNAMGWYRQAPGKERELVAAISYRSGRTYYADSVKGRFTISRDNAKNTVYLQMNSLKPEDTAVYYCAAYTNVADMEYWGQGTQVTVSS | high polyreactivity
41 | QVQLVESVLGLVQAGGSLRLSCAASGSTILSNAIGWYRQAPGKERELVAAITSGGSTYYADSVKGGFTISRDNAKNTVYFQMNSLKPDDTAVYYCAVRYDRRRYDYWGQGTQVTVSS | low polyreactivity
42 | QVQLVESGGGLVQAGGSLRLSCAASGYIITSNAMGWYRQAPGKERELVAAITYSDGSTYYADSVKGRFTISRDNAKNTVYLQMNSLIPEDTAVYYCAVDRDYNVAVLRDLDYWGQGTQVTVSS | low polyreactivity
43 | QVQLVESGGGLVQAGGSLRLSCAASGRTFYYYAMGWYRQAPGKERELVASISRRGGSTYYADSVKGRFTISRDNAKNTVYLQMNSLKPEDTAVYYCAASHYHGYSRMDYWGQGTQVTVSS | high polyreactivity
